Experiment: yeast display, Sf9 membrane polyspecificity reagent, FACS + sequencing; frameworks hold sequencing errors
Outline: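 Galactose-induced (36–48 hours) yeast carrying a synthetic nanobody display library were exposed to 10% biotinylated, detergent-solubilized Sf9 membrane reagent at 4 °C for 1 hour. FACS followed streptavidin microbead enrichment, using low and high (top ~1%) gates for expression (anti-HA) and reagent binding (streptavidin). Colony PCR, MiSeq 2 × 250 sequencing and CDR-length filtering followed. Labels for polyreactivity reflect the gate of origin.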

Sequence	polyreactivity (PSR sort gate)
QVQLVESGGGLVQAGGSLRLSCAASGRTFYFYAMGWYRQAPGKERELVADIRGITGSTYYADSVKGRFTISRDNAKNTVYLQMNSLKPEDTAVYYCAADQYLGRAWRGRGYYWGQGTQVTVSS	high polyreactivity
QVQLVESGGGLVQAGGSLRLSCAASGRTFYFYTMGWYRQAPGIERELVATIRWSAGSTYSADSVKGRFTISRDNAKNTVYLQMTSLKPEDTAVYYCNADPYVYSSWQYGYWGQGTQVTVSS	high polyreactivity
QVQLVESGGGLVQAGGSLRLSCAASGRTFYFYTMGWYRQAPGKERELVAAITSGGSTNYADSVKGRFTISRDNAKNTVYLQMNSLKPEDTAVYYCAAIYYRVYGYGLRMYYWGQGTQVTVSS	high polyreactivity
QVQLVESGGGLVQAGGSLRLSCAASGRTFYFYVMGWYRQAPGKERELVARISYSDGSTYYADSVKGRFTISRDNAKNTVYLQMNSLKPEDTAVYYCNAYDPYYGRRYDYWGQGTQVTVSS	low polyreactivity
QVQLVESGGGLVQAGGSLRLSCAASGRTFYGNAIAWYRQAPGKERELVAAINRGGNTNYADSVKGRFTISRDNAKNTVYLQMNSLKPEDTAVYYCAARPYYRYFEYWGQGTQVTVSS	high polyreactivity
QVQLVESGGGLVQAGGSLRLSCAASGRTFYGNAMGWYRQAPGKERELVASITRRGGITYYADSVKGRFTISRDNAKNTVYLQMNSLKPEDTAVYYCAKAQLGPWSFEYWGQGTQVTVSS	high polyreactivity
QVQLVESGGGLVQAGGSLRLSCAASGRTFYGNAMGWYRQAPGNERELVAAITTGGGNTYYADSVKGRFTISRDNAKNTVYLQMNSLKPDDTAVYYCAAYERKFYTVSRWYKLDYWGQGTQVTVSS	high polyreactivity
QVQLVESGGGLVQAGGSLRLSCAASGRTFYGYAKGWYIQAPGKERELVAAITRAGSTNYADSVKGRFTISRDNAKNTFYLQLNSLKPEDTAVYYCAAVRVHTDRYNYWGQGTQVTVSS	high polyreactivity
QVQLVESGGGLVQAGGSLRLSCAASGRTFYGYAMAWYRQAPGKERELVAAISVSGGSPYYADSVKGRFTISRDNAKNTVYLQMNSQKPEDTAVYYCIAKYSYRRWYDFDYWGQGTQVTVSS	low polyreactivity
QVQLVESGGGLVQAGGSLRLSCAASGRTFYGYAMGWYRQAPGKERELVAAISFSGGRTYYADSVKGRFTISRDNAKNTVYLQMNSLKPEDTAVYYCNRGLYPFDWVQGTQVTVSS	high polyreactivity
QVQLVESGGGLVQAGGSLRLSCAASGRTFYGYAMGWYRQAPGKERELVAAISKRGGSTYYADSVKGRFTISRDNAKNTVYLQMNSLKPEDTAVYYCARPYLGPYSGYDYNYWGQGTQVTVSS	high polyreactivity
QVQLVESGGGLVQAGGSLRLSCAASGRTFYGYAMGWYRQAPGKERELVAAISKTGGSTYYADSVKGRFTISRDNAKNTVYLQMNSLKPEDTAVYYCNARRIYRLEYDSWGQGTQVTVSS	high polyreactivity
QVQLVESGGGLVQAGGSLRLSCAASGRTFYGYAMGWYRQAPGKERELVAAITRSGGSTYYADSVKGRFTISRDNAKNTVYLQMNSLKPEDTAVYYCAAGGQARHDYWGQGTQVTVSS	low polyreactivity
QVQLVESGGGLVQAGGSLRLSCAASGRTFYGYAMGWYRQAPGKERELVASISRDGSTNDADSVKGRFTISRDNAKNTVYLQMNRLKPEDTEVYYCAADIWYYRYPIYYYSYDYWGQGTQVTVSS	low polyreactivity
QVQLVESGGGLVQAGGSLRLSCAASGRTFYGYAMGWYRQAPGNERELVATITRRGGSTYYADSVKGRFRISRDNAKNTVYLQMNSLKPEDTAVYYCARQGDQYYRDGDDYWGQGTQVTVSS	high polyreactivity
QVQLVESGGGLVQAGGSLRLSCAASGRTFYGYDMGWYRQAPGKERELVATISSGGSTNYADSVKGRFTISRDNAKNTVYLQMHSLKPEDTAVYYCIARRFSGYRKGLRPYGSGMNYWGQGTQVTVSS	low polyreactivity
QVQLVESGGGLVQAGGSLRLSCAASGRTFYIYAMGWYRQAPGKERELVAAISTRDTRTYYADSVKGRFTISRDNAKNTVYLQMNSLKPEDTAVYYCAADAVDRDSDYWGQGTQVTVSS	high polyreactivity
QVQLVESGGGLVQAGGSLRLSCAASGRTFYIYAMGWYRQAPGKERELVAAITRGGGSTSYADSVKGRFTISRDNAKNTVYLQMNSLKPEDTAVYYCAARYYFRWRRYDYWGQGTQVTVSS	high polyreactivity
QVQLVESGGGLVQAGGSLRLSCAASGRTFYIYAMGWYRQAPGKERELVAAITWRGGRTYYADSVKGRFTISRDNAKNTVYLQMNSLKPVDTAVYYCNARSWYSFHPHDYWGQGTQVTVSS	high polyreactivity
QVQLVESGGGLVQAGGSLRLSCAASGRTFYIYAMGWYRQAPGKERELVADITSGGSTYYADSVKGRFTISRDNAKNTVYLQMNSLKPEDTAVYYCAADWVTFYSYTEYDYWGQGTQVTVSS	low polyreactivity
QVQLVESGGGLVQAGGSLRLSCAASGRTFYIYAMGWYRQAPGKERELVAGITYSGGRTYYADSVKGRFTISRDNAKNTVYLQMNSLKPEDTAVYYCAARPYLTTEGPYNYWGQGTQVTVSS	low polyreactivity
QVQLVESGGGLVQAGGSLRLSCAASGRTFYIYAMGWYRQAPVKERELVAAITYGGGRTFYADSVKGRFTISRDNAKNTVYLKMNSLKPEDTAVYYCARGDFYYHSRYTYYTSDYWGQGTQVTVSS	high polyreactivity

Sequence	polyreactivity (PSR sort gate)
QVQLVESGGGLVQAGGSLRLSCAASGRTFYKYAMGWYRPAPGKERELVAAISGSGGGTYYADSVKGRFTISRDNAKNTVYLQMNSLKPEDTAVYYCAAVYLYYAYAFDYWGQGTHVTVSS	high polyreactivity
QVQLVESGGGLVQAGGSLRLSCAASGRTFYKYAMGWYRQAPGKERELVAAISKSGGRTYYADSVKGRFTISRDNAKNTVYLQLNSLKPEDTAVYYCAAEPFIPDQSRYYYWGQGTQVTVSS	high polyreactivity
QVQLVESGGGLVQAGGSLRLSCAASGRTFYLNAMGWYRQAPGKERQLVAVISYRGDSTYADSVKGRFTISRDNAKNTVYLQMNSLKPEDTAVYYCAADLTRYHYRYLVTHWWYDYWGQGTQVTVSS	low polyreactivity
QVQLVESGGGLVQAGGSLRLSCAASGRTFYLYTMGWYRQAPGKERELVAAINGSGGSTYYADSVKGRFTISRDNAKNTVYLQMNSLKPEATAVYYCAVLYRYGYDYWGQGTQVTVSS	low polyreactivity
QVQLVESGGGLVQAGGSLRLSCAASGRTFYNAMGWYRQAPGKERELVAGIRWSGASTYYADSVKGRFTISRDNAKNTVYLQMNSLKPEDTAVYYCAARRHSTRLRLTYDYWGQGTQVTVSS	high polyreactivity
QVQLVESGGGLVQAGGSLRLSCAASGRTFYNNAMGWYRPAPGKERELVAVISGRGGSTYYADSVKGRFTISRDNAKNTVYLQMNSLKPEDTAVYYCAAGYTRPWRFTYYYWGQGTQVTVSS	high polyreactivity
QVQLVESGGGLVQAGGSLRLSCAASGRTFYNTMGLYRQAPGKERELVAAISRGGITNYADSVKGRFTISRDSAKNTGDLQMHSLKPEDTAVYYCNAEPKRYYYYYKFDSWGQGTQVTVSS	high polyreactivity
QVQLVESGGGLVQAGGSLRLSCAASGRTFYPNAMGWSRQAPGKERELVAAINSGGSTYYADSVKGRFTISRDNAKNTVYLQMNSLKPEDTAVYYCNAERRIAYEYWGQGTQVTVSS	low polyreactivity
QVQLVESGGGLVQAGGSLRLSCAASGRTFYPNAMGWYRQAPGKEREFVARISDSGGSTYYADSVKGRFTISRDNAKNTVYLLMNSLKPEDTAVYYCAADYGDPRVNEYDYWGQGTQVTVSS	low polyreactivity
QVQLVESGGGLVQAGGSLRLSCAASGRTFYPSAMGWYRQAPGKERQLVAAITTSGGRTYYADSVKGRFTISRDNAKNTVYLQMNSLKPEDTAVYYCAKAYREGEGKFDYWGQGTQVTVSS	high polyreactivity
QVQLVESGGGLVQAGGSLRLSCAASGRTFYPYAKGWYRQAPGKERELVAAIRWSGGSTYYADSVKGRFTISRDNAKNTVYLQMNSLKPEDTAVYYCNADWKSYRGPKFDYWGQGTQVTVSS	low polyreactivity
QVQLVESGGGLVQAGGSLRLSCAASGRTFYPYAMGWYRQAPGKARELVASINWSGASTYYADSVKGRFTISRDNAKNTVYLQMNSLKPEDTAVYYCAARYTPRRYYYWGQGTHVTVSS	high polyreactivity
QVQLVESGGGLVQAGGSLRLSCAASGRTFYPYAMGWYRQAPGKERELVAAISSGGGSTYYADSVKGRFTISRDNAKNTVYLQMNSLKPEDTAVYYCAKRAGWAGWYYRNDYWGQGTQVTVSS	high polyreactivity
QVQLVESGGGLVQAGGSLRLSCAASGRTFYPYGMGWYRQAPGKERELVATITTGGSTNYADSVKGRFTISRDNAKTTVYLQMNSLKPEDTAVYYCAAKTRIRYYSWGQGTQVTVSS	low polyreactivity
QVQLVESGGGLVQAGGSLRLSCAASGRTFYQYYMGWYRQSPGKEREVVAAIDWSGGSTYYADSVKGRFTISRDNAKNTVYLQMNSLKPEDTAVYYCNADAYPHPVVGYDYWGQGTQVTVSS	low polyreactivity
QVQLVESGGGLVQAGGSLRLSCAASGRTFYRNAMGWYRQAPGKERELVAAIRGSGSSTYYADSVKGRFTISRDNAKNTVYLQMNSLKPEDTAVYYCAADYITYNGYARYYYWGQGTQVTVSS	high polyreactivity
QVQLVESGGGLVQAGGSLRLSCAASGRTFYRNPMGWYRQAPGKEWELVAGITRCGRTYYADSVKGRFRISRDNAKNTVYLQMNCLKPEDTAVYYCNKTGGNGNDYWGQGTQVTVSS	low polyreactivity
QVQLVESGGGLVQAGGSLRLSCAASGRTFYRNTMGWYRQAPGKERELVAGISYSGGSTYYADSVKGRFTISRDNAKNTVYLQMNSLKPEDTAVYYCATVRRYGYGYDYWGQGTQVTVSS	high polyreactivity
QVQLVESGGGLVQAGGSLRLSCAASGRTFYRYAMGWYRQAPGKERELVAAITTSGGSTYYADSVKGRFTISRDNAKNTVYLQMNSLKPEDTAVYYCAATYYGYHIRDDYWGQGTQVTVSS	low polyreactivity
QVQLVESGGGLVQAGGSLRLSCAASGRTFYRYAMGWYRQAPGKERELVARIRSGGSTNYADSVKGRFTISRDNAKNTVYLQMNSLKPEDTAVYYCAARPGAAGYKYYYWGQGTQVTVSS	high polyreactivity
QVQLVESGGGLVQAGGSLRLSCAASGRTFYRYAMGWYRQAPGKERELVARITSGSSTNYADSVKGRFTISRDNAKNTVYLQMNSLKPEDTAVYYCAKDPRPYLDYDYWGQGTQVTVSS	low polyreactivity
